The results in this text go back to a protein production outcome set (Wang et al. 2014).
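Further: failed if final PepcDB status was selected cloned or expressed and not failed if soluble or beyond.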

The data set can be described thus: label from the status in PepcDB records.
For “MNPRLALALKLLEAGLVESAAIPVAQALERDPDDPRAHHLAGLIARRGGDGALALAAFTRGLAVAADDAPLRIERAGLLLDLGRAEEALADLAVALALAPDHQAVLSTQGRALIDLGRPGEALAPLRRARALAPDDVAPAHNLGRALLALDRPDEALPLLEAAVARAPGAIDPRADLAEALRRLDRPGDAAQLLRAVLADAPGRADLADALAGALLAAGAVDESVAVLRASLDKAPTHGAGWVNLAAALIETGALDEATAAADRALALDPDDADAKVNRAFARCLADDYEQGFADYAHRWRTAAFQRPYPPVTAPPWAGEPLGEGTLLVRGEQGLGDQIMAARFLPWLSKRPDRPRRIVFECHPCLHRLLAEGLEAGIDLLAMGRPPPPVAAWIGALDLARMAGVTAGVMPVDVPYLKARPPVPPLAPPLPPGGRGRLGLVWAGKTRPRDRSCPLEPLAGLCVDQGWTVHALQLGPRRADLAGLPAGLGVIDEGDRLGDMAATASVMAGLDLVVAVDTAVAHLAGALGLPCALLLLATPDWRWGQKASRTVWYPSLRLFRQPHPGDWDGAFDAVRRAFAQGWPLS”, the protein production entry is recorded as “failed”. Take “MPSLPDRRRWLLDGARDTVPMMVGAAPFGLIFGTLAIAAGLSPAATAAMSLLVFAGSSQFIAVSLVSAGAALPVIWLTTFVVNLRHALYSATLLPYARPWPLAWRWPLAFWLTDETFAVVEHRFRSLGAEGGQWYWLGSSLSMYLNWQLWTLAGVALGRSVPGLDRLGLDFAMVATFAAIVAPQLKKRPTLAAALAAGAVALLARGLPYKLDLMLAALAGVAAGMMVERGQKREAA”: the protein production entry is on record as “failed”.

In the case of “MVETGHHHQHPPAPAAAGHPPVPSMAMARNMGTTWPPAEQLHHLQYCIHSNPSWHETVVLAFQHYIVMLGTTVLIANTLVSPMGGDPGDKARVIQTILFMSGINTLLQTLIGTRLPTVMGVSFAYVLPVLSIIRDYNNGQFDSEKQRFRHTMRTVQGSLIISSFVNIIIGYGQAWGNLIRIFSPIIVVPVVSVVSLGLFLRGFPLLANCVEIGLPMLILLIITQQYLKHAFSRISMILERYALLVCLAIIWAFAAILTVSGAYNNVSTATKQSCRTDRAFLMSSAPWIRIPYPFQWGTPIFKASHVFGMFGAAIVASAESTGVFFAASRLAGATAPPAHVVSRSIGLQGIGVLLEGIFGSITGNTASVENVGLLGLTRIGSRRVVQVSTFFMIFFSIFGKFGAFFASIPLPIFAGVYCILLGIVVAVGISFIQFTDTNSMRNMYVIGVSLFLSLSIAQYFLANTSRAGYGPVRTAGGWFNDILNTIFASAPLVATILATILDNTLEARHASDDARGIPWWKPFQHRNGDGRNDEFYSMPLRINELMPTRFL”, the protein production entry is given as “failed”. On to “MAHTVYENARIYTVNDQQPTASVLVVEQGKIIYVGGNDGAKQFKATAAELFDLEGKTVLPGFIESHAHPLEHHHHHH”, for which the protein production entry is recorded as “failed”. Turning to “RKKEDKYDFRALGLAIKEARKKQGLTREQVGAMIEIDPRYLTNIENKGQHPSLQVLYDLVSLLNVSVDEFFLPASSQVKSTKRRQLENKIDNF”, the protein production result is recorded as “failed”. In the case of “PMVLVVLDHDGNRLKKGSLEALTRARDLAQALGGKVAGVLLAEEKAPVEEARKYVEVLYTATLGPYTAEKWAAGVLKAAEASGAKAVVAPSSRQSRAYLGRVAYALRAGLLEDTLESRVEGGEVHATRYAYLNRVTQRVKAALPVVLTVKPNTTPLAEPLPGEAEAVALSVPEVPTVEVLERLQEEKKGVS” it was “failed”; in that of “MPQFFKRTSKIQAIIALRSIAIAIQLLLILFVNLGLAYELPWTPLVSVISLEVLFTFGSYLYYSRNHLSEKKASQKAILVQICADIIFLSLLLFFSGGATNAFVSLLLIPIAIAAVTLTPLLLTVVAFLAIASYSILLWSLPMSVMHGNMQGHFIGMGINFLFSALVVAIVVGKMARSINQQELAIAAYRENLLKQEQVTSLGVASAQVTHQLATPIATVQLLADELSEDFPDNEIVLDMQSQLTRCRDSLSEFRAMVFDIKEQVIKAINCQDLFDEITDNVRVNNPEVSLQLQKNSDEHAKDVTIDADAALLPAILNLINNAIRASKANNSNALSLTCQTIENNWQFTIRDYGKGFTLKKLNELGVKPVNSDQGFGMAVFLSHASLERLGGKLALTNHQEGGALVTLSLPISSLTSGNDYA”, “failed”; in that of “SEPGEELEEEGSPGGREDGFTAEHLAAEAMAADMDPWLVFDARTTPATELDAWLAKYPPSQVTRYGDPGSPNSEPVGWIAVYGQGYSPNSGDVQGLQAAWEALQTSGRPITPGTLRQLAITHHVLSGKWLMHLAPGFKLDHAWAGIARAVVEGRLQVAKVSPRAKEGGRQVICVYTDDFTDRLGVLEADSAIRAAGIKCLLTYKPDVYTYLGIYRANRWHLCPTLYESRFQLGGSARGSRVLDRANNVELT”, “not failed”.

For “MRRFALTVALPKGRMFREAYEVLKRAGLDLPEVEGERTLLHGKEGGVALLELRNKDVPIYVDLGIAEIGVVGKDVLLDSGRDLFEPVDLGFGACRLSLIRRPGDTGPIRRVATKYPNFTARLLKERGWAADVVELSGNIELAAVTGLADAVVDVVQTGATLRAAGLVEVEVLAHSTARLVVNRQALKLKRAVLKPLIQRLRELSGS”, the protein production result is on record as “not failed”. For “MRTLEPPNRMRIGLMGIVVALLVVAVGQSFTSVPMLFAKPSYYGQFTDSGGLHKGDRVRIAGLGVGTVEGLKIDGDHIVVKFSIGTNTIGTESRLAIRTDTILGRKVLEIEPRGAQALPPGGVLPVGQSTTPYQIYDAFFDVTKAASGWDIETVKRSLNVLSETVDQTYPHLSAALDGVAKFSDTIGKRDEQITHLLAQANQVASILGDRSDQVDRLLVNAKTLIAAFNERGRAVDALLGNISAFSAQVQNLINDNPNLNHVLEQLRILTDLLVDRKEDLAETLTILGRFSASFGETFASGPYFKVLLANLVPGQILQPFVDAAFKKRGISPEDFWRSAGLPAYRWPDPNGTRFPNGAPPPPPPVLEGTPEHPGPAVPPGSPCSYTPPADGLPRPWDPLPCANLTQGPFGGPDFPAPLDVATSPPNPDGPPPAPGLPIAGRPGEVPPNVPGTPVPIPQEAPPGARTLPLGPAPGPAPPPAAPGPPAPPGPGPQLPAPFINPGGTGGSGVTGGSEN” the value was “failed”; for “MRRREGHGTDSEMGQGPVRESQSSDPPALQFRISEYKPLNMAGVEQPPSPELRQEGVTEYEDGGAPAGDGEAGPQQAEDHPQNPPEDPNQDPPEDDSTCQCQACGPHQAAGPDLGSSNDGCPQLFQERSVIVENSSGSTSASELLKPMKKRKRREYQSPSEEESEPEAMEKQEEGKDPEGQPTASTPESEEWSSSQPATGEKKECWSWESYLEEQKAITAPVSLFQDSQAVTHNKNGFKLGMKLEGIDPQHPSMYFILTVAEVCGYRLRLHFDGYSECHDFWVNANSPDIHPAGWFEKTGHKLQPPKGYKEEEFSWSQYLRSTRAQAAPKHLFVSQSHSPPPLGFQVGMKLEAVDRMNPSLVCVASVTDVVDSRFLVHFDNWDDTYDYWCDPSSPYIHPVGWCQKQGKPLTPPQDYPDPDNFCWEKYLEETGASAVPTWAFKVRPPHSFLVNMKLEAVDRRNPALIRVASVEDVEDHRIKIHFDGWSHGYDFWIDADHPDIHPAGWCSKTGHPLQPPLGPREPSSASPGGCPPLSYRSLPHTRTSKYSFHHRKCPTPGCDGSGHVTGKFTAHHCLSGCPLAERNQSRLKAELSDSEASARKKNLSGFSPRKKPRHHGRIGRPPKYRKIPQEDFQTLTPDVVHQSLFMSALSAHPDRSLSVCWEQHCKLLPGVAGISASTVAKWTIDEVFGFVQTLTGCEDQARLFKDEARIVRVTHVSGKTLVWTVAQLGDLVCSDHLQEGKGILETGVHSLLCSLPTHLLAKLSFASDSQY”, “failed”. In the case of “MAHSPLVSIVVPAHNAEATLARALDCLLDQEIVDWEAVIVDDASTDRTPAIIAGYVEHDARFRTLRSSTSSAAGARNSGISTARGHWLMFLDADDWVDASFLAKMLAALKAAPDAVAAYCGSRRVMPDGELTPSSISTEVAIQPFETFARQCAIRTHALLVDREAIVGLGGFDVSLRTCENWDLWQRLAHLGKRWVMVDEPLAFYRVSPNSLSRNSTQMLADAEIVIARGFSADPRVSHPASGQANGAISANGGTASEALAWFALWNAASDCGRGSRSIDPQALRALPAGRKWAREIAEVAIDGLMVGSLSVPAQLAARWGRFGGPLTELIIELGKVWDNPAAGRRVQYQLEQMLLDADDLAAPRRLARTLGIRVDVRNPNAIELPEGIDRIYAYLMMDGQIEAVVQFGVLGTVTRDHWIELIQNVVPAERLADSTARLAGRSTVPQEGAGADTSNTFAAEALLFTAERRSDPDSHFGKLAQLTAEARELVRSSAEPEQPPAVPRRARAADTNDRTAFWNSYFATEDPWNYGSLYEQEKYQRQLEILPAGPIGRVLELACAEGHFTRQLAPRVSHLTATDISAIAIERARARCGDQPNIEFGVLDFAADMLPGEMDLIVCSEVLYYLDDLADLRRITKKFTEALAPGGSFITAHAFVLRDNVERTGFDWNTFGAQAISETLAATEGLVLEQSIQTELYRIDRFRRLSPDDLVTEPMIDHAPIRAQIEIGVARNIIWGGARALRRDVARNEQRQRVPVLMYHSVSDDGPAALARFRLTPAGFGSQMAWLRANGFHAINSEQLEGCIANRQPFVGRPVLITFDDGFQNFADHAWPTLRANDLTAEVFLVTDLVGKGAQWDAHNGPPTQLMDAGTVRRLAGEGAFFGSHMATHRAIDGLSSSDLAAELLRSRMFIERWTGRPTTAFTAPFSVTDRRLGRLARECGYRIGFGARHGPADLDCDLIDLPRIEIRGDRSLDDFVATVEAVLKER” it was “failed”; in that of “MRMKHLTVAALTLLLSVSCSQRQEDYPFRNPDLPIDERIDDLLKRLTAEEKIGQMMNTTPAIERLGIPEYDWWNEALHGVARAGKATVFPQAIAMAATFDDDALYETFTMVSDEARAKYHQYQKNKEYDRYKGLTFWTPNINIFRDPRWGRGMETYGEDPYLTERMGVAVVKGLQGDDPKYFKTHACAKHYAVHSGPEWNRHEFDVTVTPRDLWQTYLPAFEALVKKGNVQEVMCAYNRYQGKPCCSSDKLLIDILRNSWGYENIILSDCGAINDFWQRDERTPRHETHPDAESASADAVLNGTDLECGNSYKALIKALKEGKISENDLDVSLRRLLKGRFELGMFDPDERVPYAQIPYNVVESPEHVAQALEMAHKSMVLLKNKNNTLPLSKTIRKIAVVGPNAADSTMLWANYNGFPTHTVTILEGIRNKVPDTEVIYELGCNHAADFVIQDLGNHITSPAGQGFASEFYNNTEFKGEAVYKGLASQLHYTTGGNTQFAPNVNLTNFTARFTGEFEAPETEQVEIKLSGNDAFRLFIGDEKVAEVWENEYGAEKTYMLNAEKGKKYPVKIEYMQRTGSADLNFQIGTRRPVDYAATAAKVKDADVIVYVGGISPRLEGEEMPVNVEGFKKGDRTNIEIPKVQQEMVKALKATGKPVVYVLCTGSALALNWEDANIDAILNAWYGGQEAGTAVADILFGDYNPSGRLPVTFYKSIDQLPDFEDYSMKGRTYRYMTETPLYPFGYGLSYTNFAYRNAKLSSGKITKDQSVTLTFDIANTGKMDGDEVAQIYIKNPNDPEGPIKALKAFLRVHVKAGDSQEVNIELTPEAFHSFNDNTQTMEVRPGKYQILYGGSSDEKALERLELTIE”, “failed”. For the sequence “MRCTRLEARRMLSHINENQQPQMVDISEKAVSDRRAVAEALIELPPVFQAYVQGGDLFLKKGPVVQTAIIAGTMAVKRTAEVIPFCHPLPITSCRFETDIESQESGLRIRLRCEVKTCDRTGVEMESLHGVAIAALTIYDMAKALSPHIVIREVRLLAKSGGKKTLGQYPLYGLVLTGGQSQRMGQAKALLDYYGEPHAQYLYNLLAQSCEQVFLSAQPNQWQGTPLADLPTLPDILPQIGPIAGILTALRAYPQVNWLVVACDLPYLTTETLAPLLHHYREDVVATCYHHPQEGFPEPLCAIYTPQALPVFEAAYAEGIYCPVKILQRSPCQRIAPPQPTITANINTPEEYHEALHHVRRP”, the protein production entry is listed as “failed”.
